The results in this text go back to patent US20100074892A1 (US Dept. of Health and Human Services, published 2010).

For this test, the target named is recombinant anthrax protective antigen (PA) (Bacillus anthracis, UniProt P13423 30-764). The test is described as follows: SPR (Biacore 3000), antibody immobilized on CM3, PA in solution.
Chain of recombinant anthrax protective antigen (PA) (P13423 30-764 limits assumed): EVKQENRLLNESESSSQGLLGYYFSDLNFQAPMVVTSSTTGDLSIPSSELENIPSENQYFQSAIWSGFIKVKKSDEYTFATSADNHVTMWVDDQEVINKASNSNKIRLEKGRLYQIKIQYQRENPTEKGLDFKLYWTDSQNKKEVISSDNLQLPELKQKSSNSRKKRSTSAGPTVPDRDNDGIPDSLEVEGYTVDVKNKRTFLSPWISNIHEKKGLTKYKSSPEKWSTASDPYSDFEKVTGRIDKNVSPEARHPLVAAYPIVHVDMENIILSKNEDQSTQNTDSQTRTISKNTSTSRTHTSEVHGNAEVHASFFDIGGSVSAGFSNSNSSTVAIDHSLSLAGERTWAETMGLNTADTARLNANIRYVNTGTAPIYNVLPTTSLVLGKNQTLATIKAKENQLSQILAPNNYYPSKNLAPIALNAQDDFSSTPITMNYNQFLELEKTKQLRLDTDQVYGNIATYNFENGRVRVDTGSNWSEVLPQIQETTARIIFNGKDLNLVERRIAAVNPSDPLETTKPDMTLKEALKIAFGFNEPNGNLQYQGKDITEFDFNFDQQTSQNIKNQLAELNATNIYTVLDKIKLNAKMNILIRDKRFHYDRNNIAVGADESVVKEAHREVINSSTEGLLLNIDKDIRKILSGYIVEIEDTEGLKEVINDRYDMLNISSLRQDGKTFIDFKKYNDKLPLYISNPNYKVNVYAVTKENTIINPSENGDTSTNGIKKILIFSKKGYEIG

B1: anti-PA W1 full-length IgG1 (antibody, V domains shown)
VH: EVQLLETGGGLVQPGGSLRLSCAASGFTLRSYHMSWVRRAPGKGLEWVSVIYDGGSTSYADSVKGRFTISRDNSKNTLYLQMTSLRAEDTAVYYCARSGRPLQNYYYMDVWGKGTTVTVSS
VL: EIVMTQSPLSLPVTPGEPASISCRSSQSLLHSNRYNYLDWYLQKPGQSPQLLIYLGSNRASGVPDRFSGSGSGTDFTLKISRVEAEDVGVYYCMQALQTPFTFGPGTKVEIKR
In general, Kd refers to the equilibrium constant for the complex coming apart. One may read the koff as a measure of how fast the partners let go of each other. One may read the kon as the rate constant with which the complex forms. As to B1, the dissociation constant Kd came out at 39.7 pM, the koff worked out at 1.15e-05 s⁻¹ and the association rate constant (kon) came to 290000 M⁻¹ s⁻¹.
